In article PMC6167357 (2018):
Values joined by “and” are separate entries in the source; they are usually repeats but may differ in a detail not shown here. Identical values can stand only once.

Target: F-actin (Sus scrofa)
Assay: co-sedimentation

Kd: ~17 µM and ~7 µM
B1: titin N2A Ig80-IS-Ig81-Ig82-Ig83 (protein)
chain: SIRVVEKTTATFIAKVGGDPIPNVKWTKGKWRQLNQGGRILIHQKGDEAKLEIRDTTKTDSGLYRCVAFNKHGEIESNVNLQVDERKKQEKIEGDLRAMLKKTPALKKGSGEEEEIDIMELLKNVDPKEYEKYARMYGITDFRGLLQAFELLKQSQEEETHRLEIEELEKSERDEKEFEELVAFIQQRLTQTEPVTLIKDIENQTVLKDNDAIFEIDIKINYPEIKLSWYKGTEKLEPSNKYEISIDGDRHTLRVKNCQPKDQGNYRLVCGPHIASAKLTVIEPAWERHLQDVTLKEGQTCTMTCQFSVPNVKSEWFRNGRVLKPQGRVKTEVEHKVHKLTIADVRAEDQGQYTCKHEDLETSAELRIEAEPIQFTKRIQNIVVSEHQSATFECEVSFDDAIVTWYKGPTELTESQKYNFRNDGRCHYMTIHNVTPDDEGVYSVIARLEPRGEARSTAELYLTTKEIKLEMKPPDIPDSRVPIPTMPIRAVPPEEIPPAVAPSIPLLLPLP
